Source: patent US20080318845A1

Target: rat VPAC1 receptor (rat) (UniProt P30083)
Experiment: cell-based or functional assay

Chain of rat VPAC1 receptor (rat) (P30083 31-459): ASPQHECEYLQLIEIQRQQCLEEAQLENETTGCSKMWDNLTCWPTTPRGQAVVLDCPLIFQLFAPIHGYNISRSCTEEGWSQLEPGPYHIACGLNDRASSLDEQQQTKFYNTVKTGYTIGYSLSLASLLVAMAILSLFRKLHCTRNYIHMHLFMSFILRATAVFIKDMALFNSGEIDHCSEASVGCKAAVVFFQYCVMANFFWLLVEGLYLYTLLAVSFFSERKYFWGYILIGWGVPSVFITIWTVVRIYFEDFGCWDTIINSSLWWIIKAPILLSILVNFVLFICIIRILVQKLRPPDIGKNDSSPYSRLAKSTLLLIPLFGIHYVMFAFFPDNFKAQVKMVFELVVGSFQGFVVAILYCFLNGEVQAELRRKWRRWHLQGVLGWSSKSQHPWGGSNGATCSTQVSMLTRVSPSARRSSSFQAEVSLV

Substance | EC50, cAMP generation (DiscoveRx) [nM]
vasoactive intestinal peptide (VIP) | 0.02
pituitary adenylate cyclase-activating polypeptide PACAP-27 | 0.07
